Experimental data: patent US20240400715A1 (VIBRANT PHARMA, published 2024)
Positions count from the first letter of the chain named.

T1: human CEA (CEACAM5) on tumor cells (human, UniProt P06731 35-702)
T1 sequence (looked up): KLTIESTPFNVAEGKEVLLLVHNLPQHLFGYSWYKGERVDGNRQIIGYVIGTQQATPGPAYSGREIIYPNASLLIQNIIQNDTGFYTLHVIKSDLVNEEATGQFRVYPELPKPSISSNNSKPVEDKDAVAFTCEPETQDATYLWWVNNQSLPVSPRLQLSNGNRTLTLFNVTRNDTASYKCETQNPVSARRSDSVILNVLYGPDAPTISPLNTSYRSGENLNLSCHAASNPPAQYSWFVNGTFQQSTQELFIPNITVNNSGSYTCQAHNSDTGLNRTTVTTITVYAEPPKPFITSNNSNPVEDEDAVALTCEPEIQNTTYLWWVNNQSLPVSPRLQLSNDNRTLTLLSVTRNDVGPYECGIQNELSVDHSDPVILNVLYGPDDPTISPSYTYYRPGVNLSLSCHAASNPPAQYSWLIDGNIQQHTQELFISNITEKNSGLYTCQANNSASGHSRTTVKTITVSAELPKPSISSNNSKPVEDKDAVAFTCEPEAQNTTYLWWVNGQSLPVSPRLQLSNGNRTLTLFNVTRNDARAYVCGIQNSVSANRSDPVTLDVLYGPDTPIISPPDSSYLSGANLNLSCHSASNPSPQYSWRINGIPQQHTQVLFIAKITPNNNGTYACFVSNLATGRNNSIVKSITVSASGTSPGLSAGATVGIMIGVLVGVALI

B1: bispecific antibody 101 (Fab-Knob+CEA-Hole) (bispecific antibody, human IgG4 S228P, kappa, F234A L235A)
heavy: EVKLLESGGGLVQPKGSLKLSCAASGFTFNTYAMNWVRQAPGKGLEWVARIRSKYNNYATYYADSVKDRFTISRDDSQSILYLQMNNLKTEDTAMYYCVRHGNFGNSYVSWFAYWGQGTLVTVSSASTKGPSVFPLAPCSRSTSESTAALGCLVKDYFPEPVTVSWNSGALTSGVHTFPAVLQSSGLYSLSSVVTVPSSSLGTKTYTCNVDHKPSNTKVDKRVESKYGPPCPPCPAPEAAGGPSVFLFPPKPKDTLMISRTPEVTCVVVDVSQEDPEVQFNWYVDGVEVHNAKTKPREEQFNSTYRVVSVLTVLHQDWLNGKEYKCKVSNKGLPSSIEKTISKAKGQPREPQVYTLPPCQEEMTKNQVSLWCLVKGFYPSDIAVEWESNGQPENNYKTTPPVLDSDGSFFLYSRLTVDKSRWQEGNVFSCSVMHEALHNHYTQKSLSLSL
chain: EVQLVESGGGFVQAGESLTLSCTSSTLTFTPYRMAWYRQAPGKQRDLVADISSGDGRTTNYADFAKGRFTISRDNIKNTVFLRMTNLKPEDTAVYYCNTFVSFVGIARSWGQGTQVTVSSESKYGPPCPPCPAPEAAGGPSVFLFPPKPKDTLMISRTPEVTCVVVDVSQEDPEVQFNWYVDGVEVHNAKTKPREEQFNSTYRVVSVLTVLHQDWLNGKEYKCKVSNKGLPSSIEKTISKAKGQPREPQVCTLPPSQEEMTKNQVSLSCAVKGFYPSDIAVEWESNGQPENNYKTTPPVLDSDGSFFLVSRLTVDKSRWQEGNVFSCSVMHEALHNRFTQKSLSLSL
light: QAVVTQESALTTSPGETVTLTCRSSTGAVTTSNYANWVQEKPDHLFTGLIGGTNKRAPGVPARFSGSLIGDKAALTITGAQTEDEAIYFCALWYSNLWVFGGGTKVEIKRTVAAPSVFIFPPSDEQLKSGTASVVCLLNNFYPREAKVQWKVDNALQSGNSQESVTEQDSKDSTYSLSSTLTLSKADYEKHKVYACEVTHQGLSSPVTKSFNRGEC
notes: Human IgG4 Fc with knob-into-hole, kappa light chain
B2: EGFR-CD3 bispecific antibody 404 (bispecific antibody, human IgG4 S228P, kappa, F234A L235A)
chain: QVQLQESGGGSVQAGGSLKLSCAASGRGFSRYAMGWFRQAPGQDREFVATISWTNSTDYADSVKGRFAISRDNAKNTAYLQMNSLKPEDTAVYYCAADKWASSTRSIDYDYWGQGIQVTVSSESKYGPPCPPCPAPEAAGGPSVFLFPPKPKDTLMISRTPEVTCVVVDVSQEDPEVQFNWYVDGVEVHNAKTKPREEQFNSTYRVVSVLTVLHQDWLNGKEYKCKVSNKGLPSSIEKTISKAKGQPREPQVYTLPPCQEEMTKNQVSLWCLVKGFYPSDIAVEWESNGQPENNYKTTPPVLDSDGSFFLYSRLTVDKSRWQEGNVFSCSVMHEALHNHYTQKSLSLSL
heavy: B1 heavy with Y354C, C359S, W371S, L373A, Y412V, H440R, Y441F
light: B1 light
B3: EGFR-CD3 bispecific antibody 404 (bispecific antibody, human IgG4 S228P, kappa, F234A L235A)
chain: B2 chain
heavy: B1 heavy with Y354C, C359S, W371S, L373A, Y412V, H440R, Y441F
light: B1 light
notes: VHH-knob chain assembled from VHH and knob-Fc with hinge
B4: EGFR-CD3 bispecific antibody 401 (bispecific antibody, human IgG4 S228P, kappa, F234A L235A)
heavy: B1 heavy
chain: B2 chain with Y253C, C258S, W270S, L272A, Y311V, H339R, Y340F
light: B1 light
B5: EGFR-CD3 bispecific antibody 401 (bispecific antibody, human IgG4 S228P, kappa, F234A L235A)
heavy: B1 heavy
chain: B2 chain with Y253C, C258S, W270S, L272A, Y311V, H339R, Y340F
light: B1 light
notes: VHH-hole chain assembled from VHH and hole-Fc with hinge
B6: HER2-CD3 bispecific antibody 504 (bispecific antibody, human IgG4 S228P, kappa, F234A L235A)
chain: QVQLVQSGGGLVQAGGSLRLSCAASGRTFSSYAMAWFRQAPGKEREFVAAISWSGANIYVADSVKGRFTISRDNAKDTVYLQMNSLKPEDTAVYYCAVKLGFAPVEERQYDYWGQGTQVTVSSESKYGPPCPPCPAPEAAGGPSVFLFPPKPKDTLMISRTPEVTCVVVDVSQEDPEVQFNWYVDGVEVHNAKTKPREEQFNSTYRVVSVLTVLHQDWLNGKEYKCKVSNKGLPSSIEKTISKAKGQPREPQVYTLPPCQEEMTKNQVSLWCLVKGFYPSDIAVEWESNGQPENNYKTTPPVLDSDGSFFLYSRLTVDKSRWQEGNVFSCSVMHEALHNHYTQKSLSLSL
heavy: B1 heavy with Y354C, C359S, W371S, L373A, Y412V, H440R, Y441F
light: B1 light

Columns and labels:
[1] = target: T1, human CEA (CEACAM5) on tumor cells; assay: cell-based or functional assay
[2] = target: T1, human CEA (CEACAM5) on tumor cells; assay: cell-based or functional assay; remark: listed apart in the source
[3] = target: T2, keyhole limpet haemocyanin (KLH, Sigma, H8283) (keyhole limpet, UniProt Q10583 17-3414; Q10584 20-3421, limits assumed); assay: ELISA, KLH coated at 5 ug/mL, 100 nM antibody, anti-human IgG-HRP
T2 construct: Bought preparation coated on the plate in the polyspecificity ELISA
Description: (§1) (1) Antigen coating: cardiolipin (Sigma, cat. C0563), keyhole limpet haemocyanin (KLH, Sigma, H8283), LPS (Sigma, L6529), ssDNA (Sigma, D8899), dsDNA (Sigma, D4522) and Insulin (abs42019847) were plated at 50 μg/mL, 5 μg/mL, 10 μg/mL, 1 μg/mL, 1 μg/mL, g/mL, and 50 μL per well, and incubated at 4° C. overnight;
(§2) (4) 50 μl anti-human IgG-HRP conjugate (Sigma, AP113P, 1:8000 dilution) was added to each well; the plate was incubated for 1 h at room temperature and washed 6 times with 0.05% PBST;

Insulin (abs42019847) = target: T3, Insulin (abs42019847); assay: ELISA, insulin coated on the plate, 100 nM antibody, anti-human IgG-HRP
T3 construct: Coated on the plate in the polyspecificity ELISA
Description: as §1, §2

[4] = target: the molecule itself; assay: BLI self-interaction: antibody captured on AHQ anti-human Fc sensor, free sites blocked with human IgG, same antibody in solution
Description: The bispecific antibodies were diluted to 1 μM, and the proteins were coupled to the surface of the AHQ sensor chip in PBS, and the signal value was ˜0.8 nm. […] The experimental parameters are as follows: Baseline1: 60s, Loading: 180s, Loading response: 0.8 nm, Baseline2: 180s, Association: 240s, High sensitivity kinetics: 2 Hz.

[5] = target: T4, human EGFR on tumor cells (human, UniProt P00533 25-1210); assay: cell-based or functional assay
[6] = target: T4, human EGFR on tumor cells; assay: cell-based or functional assay; remark: listed apart in the source
[7] = target: T5, human CD3ε/δ (ACRO systems, CDD-H52W1) (human, UniProt P07766 23-126; P04234 22-105); assay: BLI, antibody captured on AHC sensor, 30 C
T5 construct: bought recombinant heterodimer; also called human CD3 epsilon/delta; Human CD3ε/CD3δ

[8] = target: T6, recombinant tumor antigen human EGFR (ACRO systems, EGR-H5222) (human, UniProt P00533 25-645); assay: BLI, antibody captured on AHC sensor, 30 C
T6 construct: bought recombinant protein
Excerpt: (§3) After the chip captures the bispecific antibodies, it was allowed to bind and dissociate with different concentrations of analytes to obtain the KD value of the interaction. The experimental parameters are as follows: Baseline1: 60s, Loading: 240s, Baseline2: 180s, Association: 240s, Dissociation: 600s, Loading Response: 1.9-2.1 (nm), High sensitivity kinetics: 2 Hz. Kinetic constants were derived based on 1:1 Langmuir binding to obtain equilibrium dissociation constants (KD).

[9] = target: T7, human HER2 on tumor cells (human, UniProt P04626 23-1255); assay: cell-based or functional assay
[10] = target: T7, human HER2 on tumor cells; assay: cell-based or functional assay; remark: listed apart in the source
[11] = target: T8, recombinant tumor antigen human HER2 (ERBB2, ACRO systems, HE2-H5212) (human, UniProt P04626 23-652); assay: BLI (Octet RED96e), antibody captured on AHC anti-human Fc sensor, HER2 as analyte, 30 C, 1:1 fit
T8 construct: Bought recombinant protein
Excerpt: as §3

| Binder | Absorbance value (450 nm, polyspecificity ELISA) [3] | Absorbance value (450 nm, polyspecificity ELISA) (Insulin (abs42019847)) | BLI-Response (self-interaction signal) [4] | EC50 of tumor cell killing, MDA-MB-468 cells with human PBMC (E:T 10:1, 3 days, CCK8) [5] | EC50 of tumor cell killing, NCI-H1573 cells with human PBMC (E:T 10:1, 3 days, CCK8) [5] | EC50 of tumor cell killing, NCI-H1650 cells with human PBMC (E:T 10:1, 3 days, CCK8) [5] | EC50 of tumor cell killing, NCI-H2228 cells with human PBMC (E:T 10:1, 3 days, CCK8) [5] | EC50 of tumor cell killing, SK-OV-3 cells with human PBMC (E:T 10:1, 3 days, CCK8) [5] | EC50 of tumor cell killing, MCF-7 cells with human PBMC (E:T 10:1, 3 days, CCK8) [6] | EC50 of tumor cell killing, N87 cells with human PBMC (E:T 10:1, 3 days, CCK8) [6] | EC50 of tumor cell killing, NCI-H157 cells with human PBMC (E:T 10:1, 3 days, CCK8) [6] | EC50 of tumor cell killing, NCI-H441 cells with human PBMC (E:T 10:1, 3 days, CCK8) [6] | Kd [7] | koff [7] | kon [7] | Kd [8] | koff [8] | kon [8] | also measured |
| --- | --- | --- | --- | --- | --- | --- | --- | --- | --- | --- | --- | --- | --- | --- | --- | --- | --- | --- | --- |
| B1 | 1.05 | 2.02 | 0.21 nm |  |  |  |  |  |  |  |  |  |  |  |  |  |  |  | EC50 of tumor cell killing, MDA-MB-468 cells with human PBMC (E:T 10:1, 3 days, CCK8) [1]: 1160 pM; EC50 of tumor cell killing, NCI-H1573 cells with human PBMC (E:T 10:1, 3 days, CCK8) [1]: 2.87 pM; EC50 of tumor cell killing, SK-OV-3 cells with human PBMC (E:T 10:1, 3 days, CCK8) [1]: 1000 pM; EC50 of tumor cell killing, MCF-7 cells with human PBMC (E:T 10:1, 3 days, CCK8) [2]: 8010 pM; EC50 of tumor cell killing, MDA-MB-453 cells with human PBMC (E:T 10:1, 3 days, CCK8) [2]: 8350 pM; EC50 of tumor cell killing, N87 cells with human PBMC (E:T 10:1, 3 days, CCK8) [2]: 200 pM |
| B2 | 1.06 | 1.08 | 0.062 nm | 0.0158 pM | 6.94 pM | 67.7 pM | 73.4 pM | 9.95 pM | 84 pM | 1470 pM | 17700 pM | 9.08 pM |  |  |  |  |  |  |  |
| B3 |  |  |  |  |  |  |  |  |  |  |  |  | 2650 pM | 0.000469 s⁻¹ | 177000 M⁻¹ s⁻¹ | 2200 pM | 0.00238 s⁻¹ | 1.08e+06 M⁻¹ s⁻¹ |  |
| B4 | 0.96 | 1.01 |  | 0.0208 pM | 5.83 pM | 98.6 pM | 114 pM | 11.3 pM | 206 pM | 1310 pM | 10000 pM | 5.38 pM |  |  |  |  |  |  |  |
| B5 |  |  |  |  |  |  |  |  |  |  |  |  | 2710 pM | 0.000491 s⁻¹ | 181000 M⁻¹ s⁻¹ | 2070 pM | 0.00201 s⁻¹ | 969000 M⁻¹ s⁻¹ |  |
| B6 | 1.92 | 1.51 |  |  |  |  |  |  |  |  |  |  |  |  |  |  |  |  | EC50 of tumor cell killing, MDA-MB-468 cells with human PBMC (E:T 10:1, 3 days, CCK8) [9]: 332 pM; EC50 of tumor cell killing, NCI-H1573 cells with human PBMC (E:T 10:1, 3 days, CCK8) [9]: 37.8 pM; EC50 of tumor cell killing, NCI-H1650 cells with human PBMC (E:T 10:1, 3 days, CCK8) [9]: 1620 pM; EC50 of tumor cell killing, NCI-H2228 cells with human PBMC (E:T 10:1, 3 days, CCK8) [9]: 2430 pM; EC50 of tumor cell killing, SK-OV-3 cells with human PBMC (E:T 10:1, 3 days, CCK8) [9]: 10 pM; EC50 of tumor cell killing, MCF-7 cells with human PBMC (E:T 10:1, 3 days, CCK8) [10]: 1220 pM; EC50 of tumor cell killing, MDA-MB-453 cells with human PBMC (E:T 10:1, 3 days, CCK8) [10]: 4060 pM; EC50 of tumor cell killing, N87 cells with human PBMC (E:T 10:1, 3 days, CCK8) [10]: 1290 pM; EC50 of tumor cell killing, NCI-H157 cells with human PBMC (E:T 10:1, 3 days, CCK8) [10]: 10800 pM; EC50 of tumor cell killing, NCI-H441 cells with human PBMC (E:T 10:1, 3 days, CCK8) [10]: 119 pM; Kd [11]: 18000 pM; koff [11]: 0.00413 s⁻¹; kon [11]: 230000 M⁻¹ s⁻¹ |
